# Patent US20240245800A1, “HIGHLY SPECIFIC RABBIT SINGLE -DOMAIN ANTIBODIES FOR DRUG DELIVERY IN IMMUNOTHERAPY APPLICATIONS” (TECHNOPHAGE, INVESTIGAÇÃO E DESENVOLVIMENTO EM …, priority 2021, published 2024)
# “Also recorded” adds a separate entry of the source.
# B1: C5: rabbit derived anti-cNHL VL sdAb clone, SEQ. ID. 3; ^99mTc radiolabelled for biodistribution (antibody, listed as Oryctolagus cuniculus, V domains shown)
# VL: ELDLTQTPSPVSASVGGTATINCQASQSVYNNYWWAWYQQRPGHPPKLLIYETSKLASGVPSRFKGSGSGTQFTLTIIDVQCDDAATYVCAGGYGTVIDNAFGGGTELEIL
# modifications: 99mTc(CO)3 radiolabel
# notes: ID; ^99mTc radiolabelled for biodistribution
# Key:
# CLBL-1 cell extracts = assay: ELISA screening of anti-cNHL VL sdAb clones; format: binding, canine; details: clone supernatants, CLBL-1 extracts
# Method: After the phage display selection, in order to express and select the best anti-cNHL VL sdAbs, phagemid DNA derived from the in vivo output selection was cloned into a PT7-PL vector and transformed into an E. coli strain BL21. Then, individual clones were auto induced, and the supernatant tested in ELISA assays against CLBL-1 and Jurkat cell extracts. To select the best lead candidates, three parameters were evaluated: binding against cNHL, expression yields, and unspecific binding. […] After selection, to characterize the selected clones, the 43 best lead candidates were analysed by sanger sequencing (FIG. 6B). To get further insights of the enriched sequences during the in vivo phage display selection, we performed next generation sequencing (NGS) of the biopanning repertoires. NGS allows massive sequence analysis of the panning population, enabling a genomic assessment of the library diversity and frequency of each clone. Two samples were sequenced: biopanning from the CLBL-1 tumour models and initial immune VL sdAb cNHL library (FIG. 7). Upon bioinformatic analysis of the NGS data, we were able to determine the diversity of each sample and identify the most represented clones. A total of 34880 sequences were obtained for the biopanning from the CLBL-1 tumours. The NHL library obtained a total of 48864 sequences. The number of singletons, consisting of the sequences with a single occurrence, varied between samples, ranging from 76.8% in the library, and 33.3% in the in vivo biopanning from the CLBL-1. Through the comparison of the sequence prevalence between the biopannings and the library, we were able to verify that the number of occurrences in each sequence was higher in the biopanning clones. […] By comparing ELISA data, sanger sequencing and NGS analysis, the six best clones (A12, C8, C5, E1, E2, and B12) were produced and purified. Due to its binding characteristics and production properties, C5 sdAb clone was chosen to be thoroughly characterized and used in the development of the proposed ADC.
# To express and select anti-NHL-sdAbs, phagemid DNA encoding selected anti-cNHL sdAbs was cloned into PT7-PL (PT7-peptide leader) vector and transformed into E. coli strain BL21. Individual colonies were inoculated in 100 μl of Super Broth (SB) medium containing Overnight Express™ Autoinduction System (Novagen®) and 100 μg/ml of ampicillin and incubated overnight at 30° C. Next day, 40 μl of BugBuster (Roche) containing anti-protease cocktail-EDTA free inhibitors (Roche) were added and incubated for 30 min at 4° C. Then, plates were centrifuged at 1200 rpm and the supernatant was tested in ELISA assays. Three different conditions were assessed: binding to the sdAbs to the antigen, expression level and unspecific binding. After coating the wells with CLBL-1 cell extracts or Raji cell extracts for 1 h at 37° C., wells were blocked with 3% BSA in PBS. Then, wells were washed with PBS and clones were added and incubated for 1 h, at 37° C. Next, plates were washed and incubated with anti-HA HRP antibody (Roche). Finally, after 1 h incubation, plates were washed and ABTS (Roche) was added and optical density at 405 nm was measured at different time points. To evaluate the expression level, the same protocol was applied, excluding antigen coating.
# For unspecific binding, antigen was replaced by 3% BSA. Rabbit sera and anti-CD20 antibody were used as positive controls. BL21 cell extracts were used as negative controls. In the end, the ten best individual clones were sequenced at Eurofins company. Sequence analysis was performed using the Vector Nti software (Invitrogen). The antibody frameworks, CDRs and the amino acid numbering and sequences followed the rules described by Kabat et al. (1991) Sequences of proteins of immunological interest. Bethesda, MD, U.S. Dept. of Health and Human Services, Public Health Service, National Institutes of Health. […]
# CLBL-1 cells = assay: Immunofluorescence binding/internalization of C5 in CLBL-1 cells; format: cell-based, canine; details: 5 μM, 90 minutes at 37° C.
# Method: FIG. 8. Binding and internalization characterization of C5 VL sdAb. C5 binding and internalization properties against CLBL-1 cells were evaluated by cytometry and immunofluorescence. A) For flow cytometry analysis, 1×10^6 of CLBL-1 cells were incubated with Live/Dead reagents for 30 minutes. Then, 3 μM of C5 were incubated with the cells for different timepoints at 37° C. After, cells were washed, fixed, permeabilized, and incubated for 30 min with anti-HA antibody, washed twice and incubated with anti-rat Alexa Fluor-488. […] B) By contrast, no binding of C5 was detected with Jurkat cells. C) To confirm the binding of C5 to the CLBL-1 verified by flow cytometry, we evaluated its distribution on the cells by immunofluorescence assay. […] Representative microphotographs with C5 (green) and DAPI stained-nuclei (blue) are shown.
# 1.5×10^5 of CLBL-1 cells were plated on ibidi μ-Slide 8 Well Glass Bottom (#80827, Ibidi, Germany) and incubated for 24 h at 37° C. in a humidified atmosphere of 5% CO2. Then, 5 μM of VL was added to the cells and incubated for 90 minutes at 37° C. […] In the Airyscan acquisition mode, ×1.80 zoom images were recorded at 1024×1024 resolution. […]
molecule,measurement,setting,value
B1,ELISA signal against NHL cells,CLBL-1 cell extracts,best results
same,distribution/internalization in CLBL-1 cells (immunofluorescence),CLBL-1 cells,internalization into the cytoplasm; also recorded: high density of Alexa Fluor-488 labelled C5 labelled in the perinuclear region
same,distribution/internalization in CLBL-1 cells (immunofluorescence),CLBL-1 cells; listed as VL C5,internalization into the cytoplasm
